Data taken from the supplement of paper PMC10567573.
± gives the standard deviation.

Test: protein stability index of a GFP-peptide fusion (GPS, HEK-293T) (PSI 1-6); higher = more stable
[1] = treatment: DMSO, c terminus: a fixed tail appended
[2] = treatment: MLN4924 1 uM, 8 h, c terminus: a fixed tail appended
[3] = treatment: DMSO, c terminus: native
[4] = treatment: MLN4924 1 uM, 8 h, c terminus: native
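Further: 24-mer peptide tiles fused after GFP, lentivirally expressed, FACS-sorted into six equal bins by GFP/DsRed ratio, decoded by Illumina sequencing, PSI is the read-weighted mean bin number.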

Row | Sequence | protein stability index [1] | protein stability index [2] | protein stability index [3] | protein stability index [4]
1 | RGLGSQASTVTEIVKQQDPLVYKA [ACSBG2] | 4.32 ± 0.041 | 4.31 ± 0.52 | – | –
2 | SIQSLTLEWNSLGTWDDAFATFCG [LRRC45] | 2.25 ± 0.25 | 2.08 ± 0.53 | – | –
3 | KIEDFREEMWTFRGKIHAFRGQIL [CCDC70] | 2.41 ± 0.24 | 2.09 ± 0.31 | – | –
4 | MRSPQNLHSQEDDDSSSESGSGNG [NOL4L] | 5.64 ± 0.21 | 5.51 ± 0.16 | – | –
5 | RDLEKQKEEVRAALEQREQDAVDQ [TRIM29] | 5.59 ± 0.08 | 5.66 ± 0.22 | – | –
6 | EKSGFSQHQNKSPPKVKAEDGMQC [DLC1] | 5.19 ± 0.33 | 5.22 ± 0.13 | – | –
7 | DQLLLNYAKKESDLNGAQIKLREY [LMNB1] | 3.617 ± 0.031 | 3.71 ± 0.1 | – | –
8 | QNYISQKEDASEFQILKYLFQIDV [MIA2] | 2.28 ± 0.21 | 2.25 ± 0.45 | – | –
9 | ALWQVLARDCFATGRHYWEVDVQE [TRIM14] | 2.4 ± 0.65 | 2.4 ± 0.24 | – | –
10 | GLEGLFEDIDTSMYDNELWAPASE [SERTAD1] | 3.79 ± 0.05 | 3.81 ± 0.29 | – | –
11 | TDGGGWLVFQRRMDGQTDFWRDWE [TNXB] | 2.33 ± 0.53 | 2.25 ± 0.65 | – | –
12 | EILDYIFSGQIRLNEDTIQDVVQA [GAN] | 2.67 ± 0.55 | 2.23 ± 0.34 | – | –
13 | ESQKANQCAVLIYTSGTTGIPKGV [ACSBG2] | 2.13 ± 0.26 | 2.52 ± 0.41 | – | –
14 | DSYESYGNSRSAPPTRGPPPSYGG [RBMX] | 4.27 ± 0.35 | 4.33 ± 0.4 | – | –
15 | IDLSHVTSKCGSLKNIRHRPGGGR [MAP2] | 3.18 ± 0.15 | 3.35 ± 0.3 | – | –
16 | PLTLQVQRPLVSVTVSDASWVSEL [AUP1] | 2.67 ± 0.15 | 2.67 ± 0.25 | – | –
17 | LYKALGAQDLTEAEGWHFFCFQGE [SAT2] | 2.5 ± 0.27 | 2.29 ± 0.43 | – | –
18 | VEYFQQSAVAMYMLYEKQKQQNVA [ZBED1] | 2.4 ± 0.18 | 2.14 ± 0.28 | – | –
19 | DLKLGNFFINEAMELKVGDFGLAA [PLK2] | 2.14 ± 0.078 | 2.63 ± 0.17 | – | –
20 | GLMSFIGNRNKLGYSLARGSIGF [TPRG1] | – | – | 2.67 ± 0.39 | 2.5 ± 0.97
21 | QGTGYIPTEQVNELVALIPHSDQR [TMEM106C] | 4.73 ± 0.18 | 4.67 ± 0.18 | – | –
22 | WFESVLEPGYIDSEIGTSDQIVPE [TRIB1] | 4.44 ± 0.2 | 4.09 ± 0.18 | – | –
23 | FQQDTKGLVDFRDVALALAALDGG [LPCAT4] | 2.48 ± 0.3 | 2.71 ± 0.2 | – | –

Row | Sequence | protein stability index [1] | protein stability index [2] | protein stability index [3] | protein stability index [4]
24 | RHCKKYWLISEEEKTQKNQCWKSL [FBXO3] | 2.5 ± 0.35 | 2.96 ± 0.4 | – | –
25 | DSDKLSGLWSRISHLVLPVQPVSS [TOR1AIP2] | 2.3 ± 0.24 | 2.32 ± 0.21 | – | –
26 | PPLPGKALKRQLPFRGDEGIFEES [SNX12] | 4.59 ± 0.21 | 4.74 ± 0.22 | – | –
27 | ILELLVLEQFLAILPKELQAWVQK [ZNF396] | 2.67 ± 0.24 | 2.65 ± 0.5 | – | –
28 | CPLKNPTFLDYVRPRSWTCRYVF [SOAT1] | – | – | 3.22 ± 0.47 | 3.06 ± 0.42
29 | LQYILAQIGFSVGLGNIWRFPYLC [SLC6A17] | 2.27 ± 0.16 | 2.88 ± 0.31 | – | –
30 | LDMNFSLENREEPWVKELQDSKEM [ZNF449] | 5.31 ± 0.18 | 5.35 ± 0.32 | – | –
31 | QHHHHHHHHHGRDFLLRAASFDVC [RHOBTB2] | 2.55 ± 0.14 | 2.58 ± 0.2 | – | –
32 | DDDFSIHAAHVVCRELGYVEAKSW [LOXL2] | 2.72 ± 0.24 | 2.83 ± 0.33 | – | –
33 | SEKSQREDEEEEEGENYQKGERGE [CHGB] | 5.48 ± 0.28 | 5.58 ± 0.28 | – | –
34 | MNHFTVNLNREEKIIREIDFYRED [TRIM55] | 3.46 ± 0.4 | 3.61 ± 0.33 | – | –
35 | DLSGRRLRDVNHEKAMAEWVKQQA [SDE2] | 4.24 ± 0.2 | 4.13 ± 0.37 | – | –
36 | GCWATDAAPAAGLCGAGSEPSIAP [RSPH3] | 4.26 ± 0.25 | 4.41 ± 0.07 | – | –
37 | DREGYTSFWNDCISSGLRGCMLIE [GOLPH3] | 2.08 ± 0.28 | 2.31 ± 0.19 | – | –
38 | TTSTLASSLPGHAAKTLPGGAGKG [EHMT1] | 4.77 ± 0.15 | 5.28 ± 0.16 | – | –
39 | LEKVLEENAQKKRFNQVLKNLLHA [VPS39] | 2.85 ± 0.22 | 2.98 ± 0.23 | – | –
40 | GLEALAGGDLMPAPADPTAREGLA [FCHO1] | 5.2 ± 0.15 | 5.23 ± 0.21 | – | –
41 | PEGTENPLGVDESLFSYGLRESIA [SLA] | 4.04 ± 1.1 | 4.19 ± 0.1 | – | –
42 | SSPVTTLTQTMHDLAGLGSETPKS [CDC25B] | 4.97 ± 0.31 | 5.13 ± 0.14 | – | –
43 | LLSIIATVMILPVTHTEISPEQQF [TMEM175] | 3.47 ± 0.95 | 3.02 ± 0.35 | – | –
44 | EFCEPAFVVGNCLQIASDSHQYDR [PCMTD1] | 3.5 ± 0.49 | 3.51 ± 0.31 | – | –
45 | IPKLTPGDNPYMYPEQSKGFHKAG [SPATS1] | 3.97 ± 0.28 | 3.84 ± 0.25 | – | –
46 | LKRRFSRLENRYEALAKQVASEMR [DAPK3] | 2.47 ± 0.26 | 2.69 ± 0.17 | – | –

Row | Sequence | protein stability index [1] | protein stability index [2] | protein stability index [3] | protein stability index [4]
47 | LQRLRENAAHLGDKRRDLAHLAAE [TRIM39] | 4.13 ± 0.31 | 3.82 ± 0.28 | – | –
48 | EEAPAVTAGLKIFEPPAPGEGNSS [TNFSF13B] | 5.33 ± 0.23 | 5.3 ± 0.14 | – | –
49 | SGGGRDSSSSILRWLPEKRANPCL [ELOA2] | 3.11 ± 0.26 | 3.47 ± 0.17 | – | –
50 | ETFRQQFRQFGYQDSPGPHEALSR [ZNF396] | 3.34 ± 0.22 | 3.68 ± 0.043 | – | –
51 | KAQLLARVNKEHEHKLKVVRDQIS [TRIM9] | 3.34 ± 0.27 | 3.42 ± 0.075 | – | –
52 | TEDSPLGTVVALLNVHDLDSEQNG [PCDHGA10] | 4.86 ± 0.18 | 4.94 ± 0.27 | – | –
53 | SAGNRTHKARTRPKARKQGVSPAD [ADAMTSL2] | 4.75 ± 0.94 | 5.07 ± 0.8 | – | –
54 | NTTCQTENRLSVFFSVIFMTVGIL [PTGFR] | 2.39 ± 0.53 | 2.64 ± 0.46 | – | –
55 | FTTLTDRELEEYRREVERKQKGSE [ADD1] | 4.53 ± 0.35 | 4.72 ± 0.4 | – | –
56 | MQALEIELQSQLSMKASLEGNLAE [KRT17] | 3.59 ± 0.19 | 3.45 ± 0.42 | – | –
57 | EVLVGKTIEQSLLEVMEEEELANL [RSPH3] | 4.89 ± 0.3 | 4.91 ± 0.23 | – | –
58 | PGRSRMISQEEFARQLQLSDPQTV [LPCAT4] | 4.44 ± 0.22 | 4.38 ± 0.12 | – | –
59 | VAKCLIGVNYPKPMVNHAEASRLN [CRY1] | 2.5 ± 0.14 | 2.46 ± 0.38 | – | –
60 | SQSHCYRTCFSPASDGSDFTFLRP [PCDHGC5] | 2.15 ± 0.26 | 2.09 ± 0.16 | – | –
61 | MKSCKNLKGGLQEVAEQLELERIG [CNOT7] | 4.39 ± 0.14 | 4.47 ± 0.18 | – | –
62 | LTGVLCSYPNPNEDKCPGNYTNPL [TMEM192] | 3.26 ± 0.19 | 3.36 ± 0.25 | – | –
63 | KLLKQMRILWKKIQENQRNLYEEG [TRIM43] | 1.88 ± 0.61 | 1.85 ± 0.081 | – | –
64 | YSLFVGLFLFGYKFSGLYILSFTV [SLC35F2] | 3.24 ± 0.39 | 3.07 ± 0.39 | – | –
65 | SQGLAREQHAGTSEGLHLAGTAGH [FBF1] | 4.76 ± 0.16 | 4.84 ± 0.36 | – | –
66 | SQIRLNREHKETCEMDWSDKMEAY [TEKT4] | 4.47 ± 0.11 | 4.58 ± 0.28 | – | –
67 | FMLEIVTPTSLSSLSNAVANTMEH [FBXO33] | 2.77 ± 0.75 | 2.7 ± 0.55 | – | –
68 | YGRSWESYSSCGDFHYCDREHVCR [RBMY1A1] | 2.65 ± 0.72 | 2.66 ± 0.35 | – | –
69 | RVPLGRLELLEEVLALGLRTDVGI [RSAD1] | 2.1 ± 0.44 | 2.15 ± 0.31 | – | –

Row | Sequence | protein stability index [1] | protein stability index [2] | protein stability index [3] | protein stability index [4]
70 | LNMFLAIINDTYSEVKEELAGQKD [PKD2L1] | 2.21 ± 0.3 | 2.37 ± 0.43 | – | –
71 | WKSHLKKVQKPLLQAPFLPPKAPP [RHOBTB1] | 3.21 ± 0.17 | 3.37 ± 0.34 | – | –
72 | GLDSISHDSANCELPLLTPCSKAV [ETS2] | 4.47 ± 0.076 | 4.55 ± 0.28 | – | –
73 | QGSRHWQKLREESAARVVLTSLLA [DUSP5] | 2.31 ± 0.25 | 2.44 ± 0.24 | – | –
74 | GPQTPKACDSKLTFDAITTIRGEV [MMP1] | 3.69 ± 0.28 | 3.66 ± 0.25 | – | –
75 | DLLPVWLLEDMRASEAFHWDERGR [ANKRD9] | 2.52 ± 0.5 | 2.87 ± 0.45 | – | –
76 | MASPPRCSPTAHDRECKLPPPSAP [WDR88] | 4.67 ± 0.25 | 4.83 ± 0.24 | – | –
77 | KKKGMYRKAITEAANAARHVAPEI [PWWP2B] | 4.33 ± 0.045 | 4.5 ± 0.28 | – | –
78 | PPSSPRTLRLEKLGHPALSQEEGK [PPFIA4] | 5 ± 0.15 | 5.19 ± 0.31 | – | –
79 | RTTVFQYPVGWPPVQELPPSLRAP [ZMAT5] | 2.8 ± 0.17 | 2.79 ± 0.29 | – | –
80 | KIMEAESQKATRECEKSALTPGFS [FAN1] | 4.86 ± 0.29 | 4.84 ± 0.14 | – | –
81 | SECGKAFPRKSELTEHQRIHTGIK [ZNF649] | 4.07 ± 0.19 | 4.2 ± 0.062 | – | –
82 | SKCKIIHTDIKPENILMCVDDAYV [SRPK2] | 2.39 ± 0.33 | 2.5 ± 0.17 | – | –
83 | SFVVARYFPAGNVVNEGFFEENVL [GLIPR2] | 2.11 ± 0.55 | 2.33 ± 0.24 | – | –
84 | PEKQKRKPGLRRSPIKKVRKSLAL [MYBL2] | 3.97 ± 0.2 | 3.83 ± 0.075 | – | –
85 | LQHMKAVQADQERERQRRLEVERE [LRRC59] | 5.24 ± 0.33 | 5.09 ± 0.27 | – | –
86 | MKIFREKIEDFREEMWTFRGKIHA [CCDC70] | 2.07 ± 0.26 | 2.39 ± 0.43 | – | –
87 | HSFNFVLSANLHGGAVVANYPYDK [CPN1] | 2.19 ± 0.44 | 2.4 ± 0.2 | – | –
88 | STRQTQSWTAVTPQQTWASPAEVV [C18orf25] | 3.63 ± 0.078 | 3.98 ± 0.24 | – | –
89 | SSYSSCYSFGSGGGYGSSFGGVDG [KRT17] | 2.69 ± 0.38 | 2.53 ± 0.2 | – | –
